Results taken from patent publication CN116670173A (LAMCAP BIOTEST LTD, dated 2023).

Target: T1, 在MKN-45细胞表面表达的人CD47 (human, UniProt Q08722 19-323)
T1 construct: whole, on cells; MKN-45 cells also carry CEACAM5; also called hCD47; CD47 on MKN-45 cells
Assay: CD47/SIRPα blocking assay on MKN-45 cells, SIRPα-mouse Fc 50 ng/mL, imaging (CX5)

T1 sequence (Q08722 19-323): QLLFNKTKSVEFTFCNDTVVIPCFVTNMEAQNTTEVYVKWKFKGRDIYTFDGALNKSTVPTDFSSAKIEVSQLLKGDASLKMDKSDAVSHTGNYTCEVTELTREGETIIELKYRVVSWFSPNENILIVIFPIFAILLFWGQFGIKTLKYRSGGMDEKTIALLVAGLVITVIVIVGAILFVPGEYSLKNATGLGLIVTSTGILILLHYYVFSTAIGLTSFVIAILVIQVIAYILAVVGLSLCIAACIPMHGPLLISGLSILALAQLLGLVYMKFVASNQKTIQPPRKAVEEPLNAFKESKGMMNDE

IC50 [nM] | Binder
0.09 | K2AC100 (bispecific antibody, human IgG1, kappa, lambda, kappa-lambda body, human IgG1; Common heavy chain and CD47 light chain tied by embodiment language only; also called CD47xCEACAM5双特异性抗体K2AC100; CEAxCD47双特异性抗体K2AC100) heavy: not shown light 1: QSVLTQPPSVSAAPGQKVTISCSGSSSNIGYGLVSWYQQLPGTAPKLLIYNGNIRPSGIPDRFSGSKSGTSATLGITGLQTGDEADYYCGTWDFSYRVDFGGGTKLTVLGQPKAAPSVTLFPPSSEELQANKATLVCLISDFYPGAVTVAWKADSSPVKAGVETTTPSKQSNNKYAASSYLSLTPEQWKSHRSYSCQVTHEGSTVEKTVAPTECS light 2: not shown
0.08 | K2AC117 (bispecific antibody, human IgG1, kappa, lambda, kappa-lambda body, human IgG1; Common heavy chain and CD47 light chain tied by embodiment language only; also called CD47xCEACAM5双特异性抗体K2AC117; K2AC177 (as printed in some legends)) heavy: not shown light 1: QSVLTQPPSVSAAPGQKVTISCSGSSSNIGIGLVSWYQQLPGTAPKLLIYNGNVRPSGIPDRFSGSKSGTSATLGITGLQTGDEADYYCGTWDFSYRVDFGGGTKLTVLGQPKAAPSVTLFPPSSEELQANKATLVCLISDFYPGAVTVAWKADSSPVKAGVETTTPSKQSNNKYAASSYLSLTPEQWKSHRSYSCQVTHEGSTVEKTVAPTECS light 2: not shown

Second part, the binder before the results:

Binder | IC50 [nM]
K2AC84 (bispecific antibody, human IgG1, kappa, lambda, kappa-lambda body, human IgG1; Common heavy chain and CD47 light chain tied by embodiment language only; also called CD47xCEACAM5双特异性抗体K2AC84; CEACAM5xCD47双特异性抗体) heavy: not shown light 1: QSVLTQPPSVSAAPGQKVTISCSGSSSNIGIGLVSWYQQLPGTAPKLLIYNVNTRPSGIPDRFSGSKSGTSATLGITGLQTGDEADYYCGTWDFSYRVDFGGGTKLTVLGQPKAAPSVTLFPPSSEELQANKATLVCLISDFYPGAVTVAWKADSSPVKAGVETTTPSKQSNNKYAASSYLSLTPEQWKSHRSYSCQVTHEGSTVEKTVAPTECS light 2: not shown | 0.04
K2AC22 (bispecific antibody, human IgG1, kappa, lambda, Comparator from WO2019234576; also called 现有技术的双特异性CEAxCD47抗体K2AC22) heavy: not shown light 1: QSVLTQPPSVSAAPGQKVTISCSGSSSNIANGIVSWYQQLPGTAPKLLIYFDNLRPSGIPDRFSGSKSGTSATLGITGLQTGDEADYYCGTWDFSYGIVFGGGTKLTVLGQPKAAPSVTLFPPSSEELQANKATLVCLISDFYPGAVTVAWKADSSPVKAGVETTTPSKQSNNKYAASSYLSLTPEQWKSHRSYSCQVTHEGSTVEKTVAPTECS light 2: not shown | 1.2
K2AC91 (bispecific antibody, human IgG1, kappa, lambda, kappa-lambda body, human IgG1; Common heavy chain and CD47 light chain tied by embodiment language only; also called CD47xCEACAM5双特异性抗体K2AC91; CEACAM5xCD47双特异性抗体) heavy: not shown light 1: QSVLTQPPSVSAAPGQKVTISCSGSSSNIGIGLVSWYQQLPGTAPKLLIYTVNNRPSGIPDRFSGSKSGTSATLGITGLQTGDEADYYCGTFDFSYGIVFGGGTKLTVLGQPKAAPSVTLFPPSSEELQANKATLVCLISDFYPGAVTVAWKADSSPVKAGVETTTPSKQSNNKYAASSYLSLTPEQWKSHRSYSCQVTHEGSTVEKTVAPTECS light 2: not shown | 0.05
K2AC82 (bispecific antibody, kappa-lambda body, human IgG1, one arm for each target; Common heavy chain and CD47 light chain are tied to the antibodies of the invention by embodiment language only; also called CD47xCEACAM5双特异性抗体K2AC82; CEACAM5xCD47双特异性抗体; not shown: lambda constant domain; probably S) heavy: not shown light 1: QSVLTQPPSVSAAPGQKVTISCSGSSSNIGYGLVSWYQQLPGTAPKLLIYGINKRPSGIPDRFSGSKSGTSATLGITGLQTGDEADYYCGTWDFSYRVDFGGGTKLTVL light 2: not shown | 0.07
